Results on two molecules are retold here after patent publication US20170218064A1 (Stanford University, published 2017).

The experiment has as its target T1, human neuromedin U (NMU), bioactive processed 25 amino acid form (human, C-terminal amidation (-NH2)).
T1 construct: In the serum ELISAs the target is endogenous circulating human NMU; also called human NMU; NMU-25
T1 peptide: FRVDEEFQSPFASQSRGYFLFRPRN
Description: not described.

B1: anti-NMU monoclonal antibody 2A16 (antibody, V domains shown)
VH: QIQLVQSGPELKKPGETVKISCKASGYTFTKHGMNWMKQAPGKGLKWMGWINTNTGEPTYSEEFKGRFAFSLETSASTAYLQINNLKNEDTATYFCARTGRYGVDYWGKGTSVTVSS
VL: DIQMTQSPSSLSASLGERVSLTCRASQDIGSNLNWIQQEPDGTIKRLIYATSTLDSGVPKRFSGSRSGSDYFLTISSLESEDFVDYYCLQFDSSPLTFGAGTKLELK
notes: Monoclonal antibody from a mouse hybridoma
For B1, the binding result is on record as “binds”.

B2: anti-NMU monoclonal antibody C578 (antibody, V domains shown)
VH: EVQLQQSGAELVRSGASVKLSCAASGFNIKDYYIHWVKQRPEQGLEWIGWIDPENGDNECAPKFQGKATMTADTSSNTAYLQLTSLTSEDTAVYYCNAGKGDYWGQGTTLTVSS
VL: NIVMTQSPSSLAMSIGQKVTMSCRSSQSLLNSSNQKNYLAWYQQKPGQSPKLLVYFASTRESGVPARFIGSGSGTDFTLTISSVQAEDLADYFCQQHYSTPFTFGSGTKLEIK
notes: as for B1
Consider B2, for which the binding result is “binds”.
